Experimental data published in US20250034594A1, “RNA-GUIDED GENOME RECOMBINEERING AT KILOBASE SCALE” (THE BOARD OF TRUSTEES OF THE LELAND STANFORD JUNIOR …, priority 2021, published 2025).

Columns and labels:
Format in all cases: cell-based
gene editing with dCas9 = experiment: Screen of 322 new SSAP proteins, gene editing activity with dCas9 (Table 5); design: dCas9 with SSAP activity: scale not given here
Summary of the method: (§1)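 Synthetic SSAP candidates, identified computationally, were tested in editing screens using both Cas9 and dCas9.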

gene editing with Cas9 = experiment: Screen of 322 new SSAP proteins, gene editing activity with Cas9 (Table 5); design: Cas9 with SSAP activity: scale not given here
Summary of the method: as §1

[1] = test system: gene editing with Cas9 and dCas9; experiment: Screen of 322 new SSAP proteins, activity across all experiments (Cas9 and dCas9, Table 5); design: scale not given here
Summary of the method: as §1

Molecule | dCas9 with SSAP activity (gene editing with dCas9) | dCas9 with SSAP activity (normalized) (gene editing with dCas9) | Cas9 with SSAP activity (gene editing with Cas9) | Cas9 with SSAP activity (normalized) (gene editing with Cas9) | Activity across all experiments [1]
SSAP_165: SEQ ID NO: 334; Robinsoniella sp. KNHs210 (protein, listed as Robinsoniella sp.) TTRTGNIKEELAKKAEGTNGDTRLTKAMSIADLIKAMEPEIKKALPEVITPERFTRMALSALNTTPKLRECTQISFLAAMMNAAQLGLEPNTPLGQAYLIPFNNKGTMECQFQIGYKGMIDLSYRNPQMQMISAQAVYENDEFKYELGLNPTLIHRPVLRGRGEVILFYGLFKLTNGGYGFEVMSKEEMDAYAKAYSKAIDSSFSPWKSNYNGMAKKTVIKQVLKYAPIKADFRKALSSDETIKNEISENMSEIHGEIIFDTDYMEESA | −2.157 | −0.568 | −0.918 | −0.925 | −1.538
SSAP_162: SEQ ID NO: 331; Helcococcus sueciensis (protein, listed as Helcococcus sueciensis) AQAKELLENKTNNTVKKSEKQTMENLLTLMADEIKKALPENVKSERFRRIALTAFNGNKDLQQCEPTSFLAAMMQSAQLGLEPNTPLGQAYLIPYNNSKKNIKEVQFQVGYKGMLDLAHRTNQYKNIQANIVYEKDEFDIEYGLNPKLKHIPNMKEDRGQAIGYYAVYNLINGGQGFEYMTRAEVEKHAQKFSKTYRNGPWQTDFDEMAKKTVLKKVLKYAPMSTELQEATAIDERVVNEENIKSKNEDKFVDVDWSYVDDVEEDVIE | −2.073 | −1.380 | 0.273 | 0.278 | −0.900
SSAP_287: SEQ ID NO: 456; Leifsonia xyli subsp. xyli str. CTCB07 (protein, listed as Leifsonia xyli) AVKKNPTIEDYLIKYEPEFQRALGASMDAAKFAQDALTAIKQNPKIGHSDPRSLFGALFLAAQLKLPVGGPLAQFHLTTRTVKGNLTVVPIVGYGGYVQLIMNTGLYSRVSAFLIHAGDYFVTGANSERGEFYDFRRADSDRGEVKGVIAYAKVKGHNESSWVYIDAETMRAKHRPKYWESTPWADDAGEMFKKTGIRVLQKYLPKSVESLNVALAASADQAIVRKVDGVPDLDIQHDRDTETVAVPEQPVSVPQPGDET | −2.044 | −1.493 | 0.085 | 0.091 | −0.980
SSAP_276: SEQ ID NO: 445; Oceanobacillus sp. Castelsardo (protein, listed as Oceanobacillus sp.) ATNSTLKNQISNKKQGNNQVGKTQGTTMKQLLASPAVMNRFEEVLGKRANQFTASILGLYNSEKMLQKAEPMSVISSAMIAATLDLPVDKNLGYAWIVPYGGKAQFQMGYKGYIQLALRTGQYRNINVIEVYEGELKKWDRLTEEIELDFESRTSDKVIGYTGYFELINGFRKTVYWSKEDVEKHKKRFSKSDFGWKNDWDAMARKTVIRNMLNKWGILSIDMQKGMVEDSKDPVEVNEEFSSDVIDADYEVVGENEQQDFTVEENA | −2.052 | −0.337 | −2.551 | −0.452 | −2.301
SSAP_224: SEQ ID NO: 393; Clostridium tyrobutyricum (protein, listed as Clostridium tyrobutyricum) SDKKMVVLGESHKALSKLLETKQEALPKDFNKARFLQNCMTVLQDTKDIDKCQPISVARTMLKGAFLGLDFFNRECYAIPYGGNLQFQTDYKGEIKLAKKYSFNSIKDIYAKIVREGDDFQESIEDGRQTINFKPLPFNNGEIIGAFAVCLFQDGSMLYETMTKQEIEDIRNNFSKAKNSPAWVKTPGEMYKKTVLRRLCKLIELDFDSVETKKTYDETSEFEFGSANHEVSNFDKDDSNIIEADAEIQDDVQEGDGEDE | −2.113 | −0.351 | 3.010 | 2.232 | 0.449
SSAP_68: SEQ ID NO: 237 (protein) TQQMPIEAQGEPTKELQQKAAVDRFNATLHQMQNEIARALPKHMTGDRFVRIVLTEVRKDPTLALCDPLTMFGSLLTAAALGLEPGLNGECWLVPRKNHGTLEAQLQVGYRGVVKLFWQNPAAAYLDTGYVCERDHFRFAKGLNPILEHTPAEGDRGKVVRYYAVAGLNTGARVFDVFTPAQIKTLRGGKVGSNGDIPDPEHWMERKTALLQVLKLMPKSTQLAAVPAADGRAHTISDAQQIFGGVDTSTGEVLEAEPVEGDAA | −2.230 | −0.296 | 1.110 | 4.696 | −0.560
SSAP_101: SEQ ID NO: 270; Halomonadaceae bacterium R4HLG17 (protein, Halomonadaceae bacterium R4HLG17) SEVATQDTLGKELQQHSGQQKKPMPTTIQGMLKDPRFTSQIARALPKHITPDRITRIALTEVNKTPALGKCDPVTLFGSIIQSAQLGLELGGALGHAYLVPYGNQAQFIIGYRGMIDLARRSGQMVSLQAHTVHDNDEFDFEYGLDEKLRHVPARGDRGPMVAVYSVAKLVGGGHQIEVMWKEDVDAIRSKSKAGNSGPWRDHYEEMAKKTAIRRLFKYLPVSVEMQKAVALDEQAEAGVQDNNVFDGEFSYGEAE | −2.273 | −0.413 | −1.798 | −0.307 | −2.036
SSAP_142: SEQ ID NO: 311; Roseburia intestinalis (protein, listed as Roseburia intestinalis) GDIRSELAKKAEQTQGNTKLTKSMSIADLIKAMEPEIQKALPSVITPERFTRMALSALNTTPKLQECTPMSFLAALMNAAQLGLEPNTPLGQAYLIPYKNKNVLECQFQLGYRGMIDLAYRNGHMQSIEAQAVYENDVFSYALGLHPELVHKPTLEEKGALKAFYAIFRLDNGGFRFEVMGKTYIDWYANRYSKAFTSEFSPWKSNYEGMAKKTVIKQLLKYAPLKTEFQRALSTDETIKNSLNVDMGEVLSEDIIDMPCEEVA | −2.145 | −1.216 | 0.197 | 0.073 | −0.974
SSAP_32: SEQ ID NO: 201 (protein) EFETDEEEKEMSNNQLSTQQAKRDIAIDTSVWTFQDVKRYFDPQNLLTEKQVGQALSLIKGRNLNPLANEVYIVAYKKKTGGTEFSLIVSKEAFLKRAAQNPNYEGFEAGVVTVDTDGVMHERKGALMLPGDTLVGGWARVYRKNFKVPVEIFVSREEYDKKQSTWNAMPATMIRKTALVNALREAFPEDLGNMYTEDDGGETFDRIKQAEPVESREDVMARKMAQIEQMKQEQAQRQIDTSYPTDDVIDPDDEPAQGELLEDLEY | −2.180 | −0.281 | −0.435 | −1.203 | −1.308
SSAP_263: SEQ ID NO: 432; Gulosibacter molinativorax (protein, Gulosibacter molinativorax) TDLTEKIATKAVAVKKDPKIADLMKSYEPQFARSLGKSMDAAKFGQDALTAIKQTPKLLEADQRSLFGAIFLAAQLKLPVGGPLAQFHLTPRKVAGEMTVVPIIGYNGYIQLAMNTGLYSKVGAFTVHANDHFRTGANSERGEFYDYERATGDRGELTGVIGYAKVKGFDESSFVYLDAATVRERHRPKFWDKTPWASDEGEMFRKTAIRVLQKYLPKSIEAAPLALAAQADQATVRRVDGVDDLQIDHEDIAIAEVIEDD | −2.069 | −0.685 | −1.201 | −0.666 | −1.635
SSAP_203: SEQ ID NO: 372; Oenococcus oeni (protein, listed as Oenococcus oeni) SNELKTILNAPTTKEKFDEVLGRNAQGYINSVLNAVGNSKLLQNASPNSILSGAMKAATLNLSIDPNLGYAYFVPYGHEAQLQIGYQGLIQLAQRSGQIKILNAAPIYDEQFKSLDPVTGKLTLNKKIVPDTNKKPTGYVAYLKTVTGFEHTEFMSYADIEKFAKRFSKSFNSSTSPWKTDFNAMAKKTLIKQVLKYAPMSIDLQTAVSADNDDIEPKDITPDEDKETVDKISNLISDNKQDDTLSQLEEVANANN | −2.129 | −0.311 | −2.670 | −0.476 | −2.400
SSAP_155: SEQ ID NO: 324; Staphylococcus nepalensis (protein, listed as Staphylococcus nepalensis) ATQNQFKNQLTQKKENNNQPQQKAVGPKQEISNLLDRMAPQIQKALPQHMSAERMARIAMTAVSSTPKLLECDPKSLIGALMQSSQIGLEPNTNLGQAYLIPYGKEVQLQVSYLGMIELANRSKQYKAIYAHEVYPEDYFEYQYGLQKDLIHKPADNPQSEPIGYYAVYHLLNGGYDFVYWSKAKIDDHARQFSKAVQKGWQSPWKTNFNAMAKKTVLKDLLKFAPKSIEMNNAVSSDSKAQQIDDDGNIIDVTDYSQVNDEPEQLQEGQ | −2.105 | −0.826 | −2.139 | −0.908 | −2.122
